For this series the following is noted: Escherichia coli (strain K12), pH 5.5, CD, Potassium phosphate 2 mM, KF 5 mM, reversible: yes, whole UniProt chain shown.

In FireProtDB (doi:10.1038/12277) one finds denaturant m value, unfolding free energy and Tm data, which are given here for one protein.

B1: Ribonuclease HI wild type, P0A7Y4 (protein)
chain: MLKQVEIFTDGSCLGNPGPGGYGAILRYRGREKTFSAGYTRTTNNRMELMAAIVALEALKEHCEVILSTDSQYVRQGITQWIHNWKKRGWKTADKKPVKNVDLWQRLDAALGQHQIKWEWVKGHAGHPENERCDELARAAAMNPTLEDTGYQVEV
For B1, where the note is “25 °C, Urea”, the denaturant m value is 2.1 kcal/mol/M and the unfolding free energy worked out at 9.7 kcal/mol. In addition, the Tm (Thermal) was 47.8 °C.
